Data as given in patent US20070203188, “Low molecular weight Myc-Max inhibitors” (University of Pittsburgh, published 2007).

Molecular target: c-Myc353-439 (bHLH-LZ)/Max(S) heterodimer (Homo sapiens, UniProt P01106;P61244-2 P01106:368-454,P61244-2:1-151)
Test: EMSA; 60 nM each protein, 10 nM DNA; 1xPBS pH 7.3, 1 mM EDTA, 0.1% NP40, 5% glycerol, 1 mM DTT, 0.4 mg/mL BSA, 25 C; binding inhibited dose-dependently by 10058-F4 and analogs
Conditions: tags: c-Myc: His6 cleaved by TEV, GGCD C-terminal extension, label: 5'-HEX on one strand
Procedure: Electrophoretic mobility shift Assays (EMSAs). Experiments were performed on 8% polyacrylamide:bis-acrylamide (80:1) gels in 0.5×TBE. Binding reactions were prepared in a buffer consisting of 1×PBS (pH 7.3); 1 mM EDTA; 0.1% NP40; 5% glycerol; 1 mM dithiothreitol; and 0.4 mg/mL BSA. A 22 base-pair E-box-containing double-stranded DNA oligonucleotide labeled on one strand with hexachlorofluoresceine (HEX) consisted of the following sequence:
The second method used to gauge the effects of 10058-F4 and its analogs on c-Myc-Max complexes relied on the use of a simple, three component electrophoretic mobility shift assay (EMSA). For this purpose, a recombinant c-Myc peptide, which encompasses the bHLH-LZ domain (c-_{Myc353-439}), together with the full-length His₆-tagged 151 amino acid isoform of Max [designated Max(S)] (Zhang H, et al. J Biol Chem 1997; 272; 17416-24 and Prochownik E V, et al. Proc Natl Acad Sci USA 1993; 90:960-4) were incubated in increasing concentrations of each relevant compound. The ability of the resultant heterodimer to bind a double-stranded target oligonucleotide containing a consensus E-box motif was then assessed by PAGE. […]

Sequence of c-Myc353-439 (bHLH-LZ)/Max(S) heterodimer (P01106 368-454, chain 1 of 2): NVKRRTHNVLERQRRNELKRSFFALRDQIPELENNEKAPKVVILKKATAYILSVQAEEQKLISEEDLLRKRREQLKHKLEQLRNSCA
Sequence of c-Myc353-439 (bHLH-LZ)/Max(S) heterodimer (P61244 other isoform, or with tags, fused parts or gaps, chain 2 of 2): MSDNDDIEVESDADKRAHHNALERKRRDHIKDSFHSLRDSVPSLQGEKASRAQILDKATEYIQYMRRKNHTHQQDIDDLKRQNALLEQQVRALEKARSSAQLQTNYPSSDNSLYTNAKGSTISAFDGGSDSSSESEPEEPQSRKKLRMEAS

B1: E-box 22-mer duplex (dsDNA)
DNA 1: CACCCGGTCACGTGGCCTACAC
DNA 2: GTGTAGGCCACGTGACCGGGTG
  binding result: binds
